In US20240182561A1 (Regeneron, published 2024):

How the values were obtained:
[1] = target: T1, human CACNG1 expressed on cells (human, UniProt Q06432 1-222); test: cell-based or functional assay
[2] = target: T1, human CACNG1 expressed on cells; test: cell-based or functional assay; remark: listed apart in the source
[3] = target: T1, human CACNG1 expressed on cells; test: cell-based or functional assay; remark: listed apart in the source
[4] = target: T2, mouse CACNG1 expressed on cells (mouse, UniProt O70578 1-223); test: biosensor conjugate imaging (AF647), 6.7 nM, C2C12 mouse myotubes
T2 construct: whole, on cells; Transfected in HEK293/mCACNG1; endogenous in C2C12 myotubes and wildtype mouse myofibers; Each row names the cell type under assay; also called mCACNG1; HEK293/mCACNG1
T2 sequence (looked up): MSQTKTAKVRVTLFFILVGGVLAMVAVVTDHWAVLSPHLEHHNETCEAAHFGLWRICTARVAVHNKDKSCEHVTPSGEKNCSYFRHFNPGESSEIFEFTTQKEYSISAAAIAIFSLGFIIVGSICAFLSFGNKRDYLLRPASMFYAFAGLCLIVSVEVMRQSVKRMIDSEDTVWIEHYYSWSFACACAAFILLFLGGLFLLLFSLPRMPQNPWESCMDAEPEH
Protocol: The growth media was changed to MyoTonic Differentiation Media (Cook Myosite Cat #MD-5555) and replaced every 2 days. C2C12 mouse myoblasts were maintained in DMEM with 10% FBS and 1% penicillin-streptomycin supplement and grown in a 37° C. incubator with 5% CO₂. […] After 24 hours, growth media was replaced with differentiation media (DMEM with 2% horse serum) and placed in a 37° C. incubator with 7.5% CO₂.

T1 sequence (Q06432 whole entry): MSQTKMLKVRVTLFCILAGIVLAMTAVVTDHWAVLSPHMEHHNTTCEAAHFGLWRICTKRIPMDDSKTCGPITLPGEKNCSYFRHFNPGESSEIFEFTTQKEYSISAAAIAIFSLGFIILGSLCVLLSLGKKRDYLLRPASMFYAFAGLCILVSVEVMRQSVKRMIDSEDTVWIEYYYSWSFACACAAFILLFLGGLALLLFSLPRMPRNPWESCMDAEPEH

EC50 of androgen receptor luciferase reporter activation (RLU) by the DHT conjugate REGN14570-M3004 in hCACNG1.AR.Luc LNCaP cells, 24 hours; concentration adjusted for DAR [1]: 2 nM
EC50 of androgen receptor luciferase reporter activation (RLU) by the DHT conjugate REGN14570-M3004 in hCACNG1.AR.Luc LNCaP cells, 48 hours; concentration adjusted for DAR [2]: 5.83 nM
EC50 of androgen receptor luciferase reporter activation (RLU) by the DHT conjugate REGN14570-M3004 in hCACNG1.AR.Luc LNCaP cells, 72 hours; concentration adjusted for DAR [3]: 6.65 nM
binding result [4]: binds
B1: REGN14570 (antibody, human IgG1, kappa, N297Q)
heavy: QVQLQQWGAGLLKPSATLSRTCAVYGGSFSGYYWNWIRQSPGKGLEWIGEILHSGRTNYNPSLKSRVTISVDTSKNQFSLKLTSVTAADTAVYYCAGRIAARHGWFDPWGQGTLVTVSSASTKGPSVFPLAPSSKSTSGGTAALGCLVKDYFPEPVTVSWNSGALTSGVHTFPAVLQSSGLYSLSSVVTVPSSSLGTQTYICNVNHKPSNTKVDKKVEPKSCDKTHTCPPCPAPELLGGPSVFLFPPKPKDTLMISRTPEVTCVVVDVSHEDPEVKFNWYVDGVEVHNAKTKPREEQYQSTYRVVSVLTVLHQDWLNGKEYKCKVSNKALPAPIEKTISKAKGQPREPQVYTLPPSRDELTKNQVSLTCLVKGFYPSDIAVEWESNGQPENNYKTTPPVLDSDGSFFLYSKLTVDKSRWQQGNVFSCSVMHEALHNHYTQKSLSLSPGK
light: DIQMTQSPSSVSTSVGDRVTISCRASQDIRKWLAWYQQKPGKAPKLLIYATSSLQSGVPSRFSGSGSGTDFTLTISSLQPEDFATYFCQQANSFPFTFGQGTKLEIKRTVAAPSVFIFPPSDEQLKSGTASVVCLLNNFYPREAKVQWKVDNALQSGNSQESVTEQDSKDSTYSLSSTLTLSKADYEKHKVYACEVTHQGLSSPVTKSFNRGEC
modifications: conjugated to the M378-Biosensor probe (Example 15) or to budesonide linker-payload M404-M3123, DAR 4.1 (Example 14); attachment residues not stated for these lots
notes: hIgG1 N297Q; Tested only as conjugates; also called REGN14570-M378-Biosensor; REGN14570-M404-M3123
